The values that follow come from patent US20200325209A1 (CSL, published 2020).

The target in experiment [1] is T1, human neonatal Fc receptor FcRn/β2m, soluble recombinant (human, UniProt P55899 24-297; P61769 21-119, alexa-488 label (Examples 2-4); minimal chemical biotinylation with Sulfo-NHS-LC-LC-Biotin (Examples 5-6)).
T1 construct: Heterodimer; extracellular domain is inferred; also called hFcRn/β2M; hsFcRn
As to the kind of experiment: flow cytometry, labelled FcRn on CHO-displayed HSA, pH 5.4. The text has this:
(§1) Background fluorescence due to non-specific binding of the labelled FcRn to the cells was subtracted from the value obtained.

Experiment [2] concerns the target T1, human neonatal Fc receptor FcRn/β2m, …. As to the kind of experiment: flow cytometry, labelled FcRn on CHO-displayed HSA, pH 7.3.
Source text: as §1
A general note: Flow cytometry measures light scatter and fluorescence of single cells or particles in a stream.

For the next experiment, the target named is HSA [G572R], soluble (human, UniProt P02768 25-609). In words: SPR, FcRn over immobilised HSA, pH 6.0. (In general: In SPR one partner is held on a chip, and binding of the other changes the refractive index at the surface.)
The target of experiment [3] is T2, HSA [A552V/G572R], soluble (human, UniProt P02768 25-609).
T2 construct: also called A522V/G572R
In words: SPR, FcRn over immobilised HSA, pH 6.0.

The target of experiment [4] is HSA [Q522L/A552V], soluble (human, UniProt P02768 25-609). As to the kind of experiment: SPR, FcRn over immobilised HSA, pH 6.0.
Experiment [5] has as its target T3, HSA [K573Y], soluble (human, UniProt P02768 25-609). In words: SPR, FcRn over immobilised HSA, pH 6.0.
The target in experiment [6] is T4, HSA [Q522L/G572R], soluble (human, UniProt P02768 25-609). In words: SPR, FcRn over immobilised HSA, pH 6.0.
In experiment [7] the target is T2, HSA [A552V/G572R], soluble. As to the kind of experiment: SPR, FcRn over immobilised HSA, pH 6.0, 1:1 model; pH 6.0. The protocol:
(§2) Spot 3 of each flow cell was activated/deactivated and used for reference subtraction. The flow rate of FcRn/β2m was kept constant at 30 μL/min
(§3) A concentration range of 2 to 0.007 μM (pH6.0) and 20 to 0.078 μM (pH7.3) was used and association and dissociation phases were monitored for 180 and 600 seconds respectively.
(§4) Regeneration of the surface was performed as previously described.

Experiment [8] addresses T3, HSA [K573Y], soluble. Described as above. The protocol: as §2, §3, §4
Experiment [9] deals with T4, HSA [Q522L/G572R], soluble. The experiment is described as above. As to the method: as §2, §3, §4
The target of another experiment is T5, HSA WT, soluble (human, UniProt P02768 25-609).
T5 construct: also called wild-type HSA; recombinant wild-type HSA
As to the kind of experiment: SPR, FcRn over immobilised HSA, pH 6.0.

T1 sequence (P55899 24-297 limits assumed, chain 1 of 2): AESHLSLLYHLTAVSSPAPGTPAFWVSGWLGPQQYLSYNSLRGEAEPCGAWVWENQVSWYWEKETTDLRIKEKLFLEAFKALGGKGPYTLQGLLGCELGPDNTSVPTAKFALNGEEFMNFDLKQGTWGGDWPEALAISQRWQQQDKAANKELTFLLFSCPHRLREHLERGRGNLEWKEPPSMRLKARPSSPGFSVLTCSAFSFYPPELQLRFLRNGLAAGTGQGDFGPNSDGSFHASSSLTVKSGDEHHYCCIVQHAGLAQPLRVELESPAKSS
T1 sequence (P61769 21-119 limits assumed, chain 2 of 2): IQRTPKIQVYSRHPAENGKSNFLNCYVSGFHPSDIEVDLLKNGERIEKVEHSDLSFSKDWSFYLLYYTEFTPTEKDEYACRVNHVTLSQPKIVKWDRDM

B1: HSA [K317E/M329V/K372E/F377I/I388T/A552V/G572R] (clone 3.9), membrane-tethered on CHO cells (other)
chain: DAHKSEVAHRFKDLGEENFKALVLIAFAQYLQQCPFEDHVKLVNEVTEFAKTCVADESAENCDKSLHTLFGDKLCTVATLRETYGEMADCCAKQEPERNECFLQHKDDNPNLPRLVRPEVDVMCTAFHDNEETFLKKYLYEIARRHPYFYAPELLFFAKRYKAAFTECCQAADKAACLLPKLDELRDEGKASSAKQRLKCASLQKFGERAFKAWAVARLSQRFPKAEFAEVSKLVTDLTKVHTECCHGDLLECADDRADLAKYICENQDSISSKLKECCEKPLLEKSHCIAEVENDEMPADLPSLAADFVESKDVCENYAEAKDVFLGVFLYEYARRHPDYSVVLLLRLAKTYETTLEKCCAAADPHECYAEVFDEIKPLVEEPQNLTKQNCELFEQLGEYKFQNALLVRYTKKVPQVSTPTLVEVSRNLGKVGSKCCKHPEAKRMPCAEDYLSVVLNQLCVLHEKTPVSDRVTKCCTESLVNRRPCFSALEVDETYVPKEFNAETFTFHADICTLSEKERQIKKQTALVELVKHKPKATKEQLKAVMDDFVAFVEKCCKADDKETCFAEERKKLVAASQAALGL
notes: not shown: Myc tag and PDGFR transmembrane domain
For B1, in experiment [1], the “fold change to WT” value is 20.8 fold and the geoMFI was found to be 34800. In addition, in experiment [2], the “fold change to WT” value turned out to be 1.8 fold and the geoMFI worked out at 28.8.

B2: mouse FcRn/β2m, soluble recombinant (receptor)
chain: SETRPPLMYHLTAVSNPSTGLPSFWATGWLGPQQYLTYNSLRQEADPCGAWMWENQVSWYWEKETTDLKSKEQLFLEALKTLEKILNGTYTLQGLLGCELASDNSSVPTAVFALNGEEFMKFNPRIGNWTGEWPETEIVANLWMKQPDAARKESEFLLNSCPERLLGHLERGRRNLEWKEPPSMRLKARPGNSGSSVLTCAAFSFYPPELKFRFLRNGLASGSGNCSTGPNGDGSFHAWSLLEVKRGDEHHYQCQVEHEGLAQPLTVDLDSSARSS
b2m: IQKTPQIQVYSRHPPENGKPNILNCYVTQFHPPHIEIQMLKNGKKIPKVEMSDMSFSKDWSFYILAHTEFTPTETDTYACRVKHASMAEPKTVYWDRDM
notes: Extracellular domain inferred from 'soluble'; also called murineFcRn; murine FcRn/β2m
For the molecule B2, the binding result was “no binding (tested: 2 µM)” with HSA [G572R], soluble; “no binding (tested: 2 µM)” in experiment [3]; “no binding (tested: 2 µM)” in experiment [4]; “no binding (tested: 2 µM)” with HSA [K573Y], soluble [5]; “no binding (tested: 2 µM)” in experiment [6].

B3: rat FcRn/β2m, soluble recombinant (receptor)
chain: AEPRLPLMYHLAAVSDLSTGLPSFWATGWLGAQQYLTYNNLRQEADPCGAWIWENQVSWYWEKETTDLKSKEQLFLEAIRTLENQINGTFTLQGLLGCELAPDNSSLPTAVFALNGEEFMRFNPRTGNWSGEWPETDIVGNLWMKQPEAARKESEFLLTSCPERLLGHLERGRQNLEWKEPPSMRLKARPGNSGSSVLTCAAFSFYPPELKFRFLRNGLASGSGNCSTGPNGDGSFHAWSLLEVKRGDEHHYQCQVEHEGLAQPLTVDLDSPARSS
b2m: IQKTPQIQVYSRHPPENGKPNFLNCYVSQFHPPQIEIELLKNGKKIPNIEMSDLSFSKDWSFYILAHTEFTPTETDVYACRVKHVTLKEPKTVTWDRDM
notes: Extracellular domain inferred from 'soluble'
For the molecule B3, the Kd amounted to 4.82 µM in [7]; 0.989 µM with HSA [K573Y], soluble [8]; 4.75 µM in experiment [9]. Further, the binding result is “no binding (tested: 2 µM)” with HSA [G572R], soluble; “no binding (tested: 2 µM)” in experiment [4]; “no binding (tested: 2 µM)” with HSA WT, soluble.

A word on the Kd: it is the constant that tells how readily two partners part at equilibrium.
